Test results published in article PMC6404062.

B1: Clone 34 heptapeptide QPQMSHM, displayed on M13 phage (peptide)
peptide: QPQMSHM
B2: Clone 3 heptapeptide NVQYFAV, displayed on M13 phage (peptide)
peptide: NVQYFAV
B3: Clone 44 heptapeptide SHLSKNF, displayed on M13 phage (peptide)
peptide: SHLSKNF
B4: Clone 40 heptapeptide NCHKCWN, displayed on M13 phage (peptide)
peptide: NCHKCWN
B5: Clone 36 heptapeptide TNIESLK, displayed on M13 phage (peptide)
peptide: TNIESLK
B6: Clone 1 heptapeptide CPSTHWK, displayed on M13 phage (peptide)
peptide: CPSTHWK
B7: Clone 5 heptapeptide ASHTQKS, displayed on M13 phage (peptide)
peptide: ASHTQKS

Key:
[1] = target: Human IgG4 monoclonal antibody (human); test: ELISA; data not shown: the same plates in DMEM with 5% FCS and 5 g/L ovalbumin, hIgG4-coated wells compared with control wells coated with 200 µL of 100 µg/mL lactoferrin in TBS
[2] = target: Human IgG4 monoclonal antibody (human); test: ELISA; hIgG4 coated on wells as in the screening; 2.5 × 10^11 phage particles in 100 µL per well in DMEM with 5% FCS and 5 g/L ovalbumin, in triplicate; original phage library assayed beside the clones

Row | Binder | fold absorbance over lactoferrin-coated control wells [1] [fold] | fold absorbance over the original phage library [2] [fold] | ELISA signal [2] [AU] | fold ELISA signal over the original phage library [2] [fold]
1 | B1 | > 3 | > 2.5 |  | 
2 | B2 | > 3 | > 2.5 | > 0.85 | > 4
3 | B3 | > 3 | > 2.5 |  | 
4 | B4 | > 3 | > 2.5 | > 0.85 | > 4
5 | B5 | > 3 | > 2.5 |  | 
6 | B6 | > 3 | > 2.5 |  | 
7 | B7 | > 3 | > 2.5 |  | 
